Experimental data taken from patent US20200347101A1 (PAI LIFE SCIENCES, published 2020).
“And” between values parts separate entries of the source, which are not always exact repeats. Equal values may be shown once. Read-outs that look alike come from different tables or passages of the source.

Assays:
[1] = biological target: DSG2 on cells (HeLa cells in the viral inhibition assay; HT29 cells in the shedding assay) (UniProt Q14126)
[2] = biological target: DSG2 on cells (HeLa cells in the viral inhibition assay; HT29 cells in the shedding assay) (UniProt Q14126); experiment: cell-based or functional assay
[3] = biological target: DSG2 on cells (HeLa cells in the viral inhibition assay; HT29 cells in the shedding assay) (UniProt Q14126); experiment: cell-based or functional assay; remark: listed apart in the source
[4] = biological target: recombinant human DSG2 (human) (UniProt Q14126); experiment: SPR, comparison of the two formats
[5] = biological target: recombinant human DSG2 (human) (UniProt Q14126); experiment: SPR; summary table, Affinity to DSG2 (nM)
[6] = biological target: recombinant human DSG2 (human) (UniProt Q14126); experiment: SPR (Biacore 3000), hDSG2 immobilized, JO protein flowed
[7] = biological target: recombinant human DSG2 (human) (UniProt Q14126); experiment: SPR (Biacore 3000), JO protein immobilized, rhDSG2 flowed
[8] = biological target: T1, DSG2 on cells (HeLa cells in the viral inhibition assay; HT29 cells in the shedding assay) (UniProt Q14126 50-1118); experiment: cell-based or functional assay
T1 sequence: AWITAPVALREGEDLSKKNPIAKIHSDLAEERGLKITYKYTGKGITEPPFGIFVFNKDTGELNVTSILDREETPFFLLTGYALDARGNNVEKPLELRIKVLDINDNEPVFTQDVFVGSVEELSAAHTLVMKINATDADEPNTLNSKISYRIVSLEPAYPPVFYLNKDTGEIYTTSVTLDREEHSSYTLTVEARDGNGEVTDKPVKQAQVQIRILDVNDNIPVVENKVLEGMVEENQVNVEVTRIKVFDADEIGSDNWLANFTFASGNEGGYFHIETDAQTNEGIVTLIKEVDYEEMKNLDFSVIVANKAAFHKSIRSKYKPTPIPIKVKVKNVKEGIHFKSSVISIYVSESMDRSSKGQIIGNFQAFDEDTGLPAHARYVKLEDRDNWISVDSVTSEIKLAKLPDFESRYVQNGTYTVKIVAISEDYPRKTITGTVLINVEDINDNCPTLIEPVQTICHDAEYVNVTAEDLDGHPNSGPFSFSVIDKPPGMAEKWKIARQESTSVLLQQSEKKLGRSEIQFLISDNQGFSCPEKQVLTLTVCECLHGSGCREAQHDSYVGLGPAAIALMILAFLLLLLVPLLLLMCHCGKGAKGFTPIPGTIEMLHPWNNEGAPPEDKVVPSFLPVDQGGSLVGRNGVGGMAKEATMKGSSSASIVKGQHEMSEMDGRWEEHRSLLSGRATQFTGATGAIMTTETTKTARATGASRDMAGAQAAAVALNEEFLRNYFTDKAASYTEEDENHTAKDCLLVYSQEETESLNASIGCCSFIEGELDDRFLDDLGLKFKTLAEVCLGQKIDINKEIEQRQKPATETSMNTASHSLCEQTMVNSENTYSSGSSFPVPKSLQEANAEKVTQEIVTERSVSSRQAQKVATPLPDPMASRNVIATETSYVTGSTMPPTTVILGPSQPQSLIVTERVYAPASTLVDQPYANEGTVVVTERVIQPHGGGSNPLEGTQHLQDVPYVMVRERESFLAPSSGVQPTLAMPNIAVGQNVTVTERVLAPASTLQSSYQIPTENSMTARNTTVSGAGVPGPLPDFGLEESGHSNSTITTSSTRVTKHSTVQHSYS

[9] = biological target: T1, DSG2 on cells (HeLa cells in the viral …); experiment: cell-based or functional assay; remark: listed apart in the source
[10] = biological target: T1, DSG2 on cells (HeLa cells in the viral …); experiment: cell-based or functional assay; remark: listed apart in the source
recombinant human DSG2 [11] = biological target: T2, recombinant human DSG2 (human, UniProt Q14126 50-609); experiment: SPR, comparison of the two formats
T2 construct: also called hDSG2; rhDSG2
T2 sequence: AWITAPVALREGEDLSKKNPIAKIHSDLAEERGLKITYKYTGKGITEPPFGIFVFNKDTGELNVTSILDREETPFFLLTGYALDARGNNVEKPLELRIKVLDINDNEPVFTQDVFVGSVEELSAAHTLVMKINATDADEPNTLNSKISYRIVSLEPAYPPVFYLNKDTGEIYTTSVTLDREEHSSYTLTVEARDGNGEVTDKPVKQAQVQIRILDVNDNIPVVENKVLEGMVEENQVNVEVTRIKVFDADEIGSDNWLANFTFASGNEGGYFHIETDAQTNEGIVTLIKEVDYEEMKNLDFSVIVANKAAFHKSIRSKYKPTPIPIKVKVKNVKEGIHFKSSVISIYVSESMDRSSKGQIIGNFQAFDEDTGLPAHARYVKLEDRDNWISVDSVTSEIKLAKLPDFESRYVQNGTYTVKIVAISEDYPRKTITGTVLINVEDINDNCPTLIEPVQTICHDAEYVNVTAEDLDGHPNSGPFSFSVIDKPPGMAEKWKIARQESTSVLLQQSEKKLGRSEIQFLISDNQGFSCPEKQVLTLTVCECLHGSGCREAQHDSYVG

[12] = biological target: T1, DSG2 on cells (HeLa cells in the viral …); experiment: cell-based or functional assay; remark: listed apart in the source
[13] = biological target: T1, DSG2 on cells (HeLa cells in the viral …); experiment: cell-based or functional assay; remark: listed apart in the source
recombinant human DSG2 [14] = biological target: T2, recombinant human DSG2; experiment: SPR; summary table, Affinity to DSG2 (nM)
recombinant human DSG2 [15] = biological target: T2, recombinant human DSG2; experiment: SPR (Biacore 3000), hDSG2 immobilized, JO protein flowed
recombinant human DSG2 [16] = biological target: T2, recombinant human DSG2; experiment: SPR (Biacore 3000), JO protein immobilized, rhDSG2 flowed
[17] = biological target: T1, DSG2 on cells (HeLa cells in the viral …); experiment: cell-based or functional assay; remark: listed apart in the source

JO-4 (designed binder) was tested, and the IC50 (read off the curve); VIA, oxidized (non-reduced) JO4 [1] was 0.05 µg/mL, the IC50 (read off the curve); VIA, reduced (DTT) JO4 [1] was 0.05 µg/mL and the DSG2 shedding from HT29 cells relative to PBS treated monolayers (ELISA of the medium) [2] was 1.44 fold. It also gave a VIA IC50 [2] of 0.067 µg/mL and a VIA IC50 [3] of 0.065 µg/mL.

Molecule “JO-4 (designed binder; other documents disagree on this pair)” has a fold faster on-rate, JO-4 immobilized against DSG2 immobilized [4] of 3.4 fold, a fold improvement in affinity, JO-4 immobilized against DSG2 immobilized [4] of 20 fold and a fold more stable dissociation rate, JO-4 immobilized against DSG2 immobilized [4] of 5.7 fold. The Kd [5] was 0.58 nM, the Kd [6] was 11.4 nM and the koff [6] was 0.00264 s⁻¹. It also gave a Kd [7] of 0.58 nM, a koff [7] of 0.00046 s⁻¹ and a kon [7] of 790000 M⁻¹ s⁻¹.

B1: GB5 (designed binder)
chain: MRGSHHHHHHGSKNSIALKNNTLWTGPKPEANSIIEYGKQNPDSKLTLILVKNGGIVNGYVTLMGASDYVNTLFKNKNVSINVELYFDATGHILPDSSSLKTDLELKYKQTADFSARGFMPSTTAYPFVLPNAGTHNENYIFGQSYYKASDGALFPLEVTVMLNKRLPDSRTSYVMTFLWSLNAGLAPETTQATLITSPFTFSYIREDD
B1 was tested, and the “lower viral inhibition relative to JO-1 (VIA)” value [8] was 5 fold and the “VIA IC50” value [9] was 0.241 µg/mL.

B2: GB7/JOC-x (designed binder)
chain: RGSHHHHHHGSKNSIALKNNTLWTGPKPEANSIIEYGKQNPDSKLTLILVKNGGIVNGYVTLMGASDYVNTLFKNKNVSINVELYFDATGHILPDSSSLKTDLELKYKQTADFSARGFMPSTTAYPFDLPNAGTHNENYIFGQSYYKASDGALFPLEVTVMLNKRLPDSRTSYVMTFLWSLNAGLAPETTQATLITSPFTFSYIREDDGGGSGGGSGGGSC
notes: also called GB7 (ΔDD)
With B2 the “DSG2 shedding from HT29 cells relative to PBS treated monolayers (ELISA of the medium)” value [8] was 1.39 fold, the “VIA IC50” value [8] was 0.032 µg/mL and 0.055 µg/mL and the “VIA, DTT-reduced against oxidized protein: decrease in viral inhibition” value [8] was 5 fold. The “loss of viral inhibition of unconjugated JOC-x in the presence of poly(I:C) (VIA)” value [8] was roughly 3.9 fold, the “VIA IC50” value [9] was 0.032 µg/mL and the “VIA IC50” value [10] was 0.029 µg/mL. The “fold reduction in affinity, GB7 immobilized against DSG2 immobilized” value (recombinant human DSG2 [11]) was 2 fold, the “IC50 (read off the curve); VIA, oxidized (non-reduced) GB7 (JOC-x)” value [12] was roughly 0.02 µg/mL and the “IC50 (read off the curve); VIA, reduced (DTT) GB7 (JOC-x)” value [12] was roughly 0.2 µg/mL. The “IC50 (read off the curve); VIA, unconjugated mixture JOC-x + poly(I:C)” value [13] was roughly 0.2 µg/mL, the Kd (recombinant human DSG2 [14]) was 1.2 nM and the Kd (recombinant human DSG2 [15]) was 0.58 nM. It also gave a koff (recombinant human DSG2 [15]) of 0.00083 s⁻¹, a Kd (recombinant human DSG2 [16]) of 1.19 nM and a koff (recombinant human DSG2 [16]) of 0.00075 s⁻¹. The kon (recombinant human DSG2 [16]) was 630000 M⁻¹ s⁻¹.

B3: JOC-DOTA (designed binder)
chain: RGSHHHHHHGSKNSIALKNNTLWTGPKPEANSIIEYGKQNPDSKLTLILVKNGGIVNGYVTLMGASDYVNTLFKNKNVSINVELYFDATGHILPDSSSLKTDLELKYKQTADFSARGFMPSTTAYPFDLPNAGTHNENYIFGQSYYKASDGALFPLEVTVMLNKRLPDSRTSYVMTFLWSLNAGLAPETTQATLITSPFTFSYIREDDGGGSGGGSGGGSC
modifications: maleimido-mono-amide-DOTA conjugated to reduced JOC-x (free cysteine)
B3 was tested, and the “VIA IC50” value [8] was 0.131 µg/mL.

B4: JOC-DOTA (Eu) (designed binder)
chain: RGSHHHHHHGSKNSIALKNNTLWTGPKPEANSIIEYGKQNPDSKLTLILVKNGGIVNGYVTLMGASDYVNTLFKNKNVSINVELYFDATGHILPDSSSLKTDLELKYKQTADFSARGFMPSTTAYPFDLPNAGTHNENYIFGQSYYKASDGALFPLEVTVMLNKRLPDSRTSYVMTFLWSLNAGLAPETTQATLITSPFTFSYIREDDGGGSGGGSGGGSC
modifications: maleimido-mono-amide-DOTA conjugated to reduced JOC-x (free cysteine), complexed with europium ions
In the case of B4, the “VIA IC50” value [8] is reported as 0.254 µg/mL.

B5: JOC-poly(I:C) conjugate (designed binder)
chain: RGSHHHHHHGSKNSIALKNNTLWTGPKPEANSIIEYGKQNPDSKLTLILVKNGGIVNGYVTLMGASDYVNTLFKNKNVSINVELYFDATGHILPDSSSLKTDLELKYKQTADFSARGFMPSTTAYPFDLPNAGTHNENYIFGQSYYKASDGALFPLEVTVMLNKRLPDSRTSYVMTFLWSLNAGLAPETTQATLITSPFTFSYIREDDGGGSGGGSGGGSC
modifications: poly(I:C) linked through the crosslinker SMPB to the free cysteine on JOC-x
In the case of B5, the “IC50 of the conjugate relative to the unconjugated protein (VIA)” value [8] is reported as roughly 6.3 fold and the “VIA IC50” value [8] is reported as 0.203 µg/mL.

B6: GB10 (designed binder)
chain: MRGSHHHHHHCGSKVSALKEKVSALKEKVSALKEKVSALKEKVSALKEGSGGGSGGGSGGGSNSIALKNNTLWTGPKPEANSIIEYGKQNPDSKLTLILVKNGGIVNGYVTLMGASDYVNTLFKNKNVSINVELYFDATGHILPDSSSLKTDLELKYKQTADFSARGFMPSTTAYPFVLPNAGTHNENYIFGQSYYKASDGALFPLEVTVMLNKRLPDSRTSYVMTFLWSLNAGLAPETTQATLITSPFTFSYIREDD
For B6, the “VIA IC50” value [9] was 0.026 µg/mL.

B7: GB3 (designed binder)
chain: MRGSHHHHHHGSKVSALKEKVSALKEKVSALKEKVSALKEKVSALKEGSGGGSGGGSGGGSNSIALKNNTLWTGPKPEANSIIEYGKQNPDSKLTLILVKNGGIVNGYVTLMGASDYVNTLFKNKNVSINVELYFDATGHILPDSSSLKTDLELKYKQTADFSARGFMPSTTAYPFDLPNAGTHNENYIFGQSYYKASDGALFPLEVTVMLNKRLPDSRTSYVMTFLWSLNAGLAPETTQATLITSPFTFSYIREDDGGGSGGGSGGGSC
In the case of B7, the “DSG2 shedding from HT29 cells relative to PBS treated monolayers (ELISA of the medium)” value [8] is reported as 1.52 fold, the “VIA, DTT-reduced against oxidized protein: reduction in viral inhibition” value [8] is reported as roughly 2 fold and the “VIA IC50” value [9] is reported as 0.029 µg/mL. For the same molecule, the “VIA IC50” value [10] was 0.028 µg/mL, the “IC50 (read off the curve); VIA, oxidized (non-reduced) GB3” value [17] was roughly 0.03 µg/mL and the “IC50 (read off the curve); VIA, reduced (DTT) GB3” value [17] was roughly 0.06 µg/mL. The Kd (recombinant human DSG2 [14]) was 0.11 nM, the Kd (recombinant human DSG2 [15]) was 0.11 nM and the koff (recombinant human DSG2 [15]) was 0.0005 s⁻¹.
